Article PMC5737217 (Nucleic Acids Research, 2017)

Legend:
non-reducing SDS-PAGE = molecular target: the molecule itself; assay: non-reducing SDS-PAGE
[1] = molecular target: tSTATcc (truncated STAT1, C-C dimer) (UniProt P42224 132-713, A656C;N658C); assay: Spec-seq
tSTATcc-N460H = tSTATcc-N460H (UniProt P42224 132-713, N460H;A656C;N658C); assay: Spec-seq
tSTATcc-N460H, sequence (P42224 132-713 N460H/A656C/N658C): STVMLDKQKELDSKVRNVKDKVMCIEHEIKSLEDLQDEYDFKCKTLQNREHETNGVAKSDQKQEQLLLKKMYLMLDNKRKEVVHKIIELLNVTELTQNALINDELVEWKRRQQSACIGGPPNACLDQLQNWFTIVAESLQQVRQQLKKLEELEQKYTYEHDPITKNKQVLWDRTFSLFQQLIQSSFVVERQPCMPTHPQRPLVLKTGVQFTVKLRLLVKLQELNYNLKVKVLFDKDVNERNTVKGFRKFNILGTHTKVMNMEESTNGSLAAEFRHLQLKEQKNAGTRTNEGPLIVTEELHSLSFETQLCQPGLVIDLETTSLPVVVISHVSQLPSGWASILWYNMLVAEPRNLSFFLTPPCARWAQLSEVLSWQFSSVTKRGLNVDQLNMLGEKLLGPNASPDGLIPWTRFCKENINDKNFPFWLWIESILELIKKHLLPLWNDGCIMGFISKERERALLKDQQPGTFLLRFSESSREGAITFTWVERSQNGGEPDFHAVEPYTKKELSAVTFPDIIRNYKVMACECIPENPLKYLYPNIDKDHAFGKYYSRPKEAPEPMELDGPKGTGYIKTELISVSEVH

Binder	stoichiometry N (non-reducing SDS-PAGE)	binding signal [1]	binding signal (tSTATcc-N460H)
tSTATcc (truncated STAT1α, amino acids 132–713, with A656C and N658C) (domain or fragment, UniProt P42224 132-713, looked up) STVMLDKQKELDSKVRNVKDKVMCIEHEIKSLEDLQDEYDFKCKTLQNREHETNGVAKSDQKQEQLLLKKMYLMLDNKRKEVVHKIIELLNVTELTQNALINDELVEWKRRQQSACIGGPPNACLDQLQNWFTIVAESLQQVRQQLKKLEELEQKYTYEHDPITKNKQVLWDRTFSLFQQLIQSSFVVERQPCMPTHPQRPLVLKTGVQFTVKLRLLVKLQELNYNLKVKVLFDKDVNERNTVKGFRKFNILGTHTKVMNMEESTNGSLAAEFRHLQLKEQKNAGTRTNEGPLIVTEELHSLSFETQLCQPGLVIDLETTSLPVVVISNVSQLPSGWASILWYNMLVAEPRNLSFFLTPPCARWAQLSEVLSWQFSSVTKRGLNVDQLNMLGEKLLGPNASPDGLIPWTRFCKENINDKNFPFWLWIESILELIKKHLLPLWNDGCIMGFISKERERALLKDQQPGTFLLRFSESSREGAITFTWVERSQNGGEPDFHAVEPYTKKELSAVTFPDIIRNYKVMACECIPENPLKYLYPNIDKDHAFGKYYSRPKEAPEPMELDGPKGTGYIKTELISVSEVH	2	–	–
1C_GAS (dsDNA) DNA 1: GCTGCCACTAGAGTTTTTTCGGGAAAAGATCATCAAGAGCACACGGG DNA 2: CCCGTGTGCTCTTGATGATCTTTTCCCGAAAAAACTCTAGTGGCAGC	–	1.6 kT (ddG vs 2C_GAS)	1.8 kT (ddG vs 2C_GAS)
1T_GAS (dsDNA) DNA 1: GCTGCCACTAGAGTTTTTCTAGGAAAAGATCATCAAGAGCACACGGG DNA 2: CCCGTGTGCTCTTGATGATCTTTTCCTAGAAAAACTCTAGTGGCAGC	–	1.7 kT (ddG vs 2C_GAS)	1.7 kT (ddG vs 2C_GAS)
3C_GAS (dsDNA) DNA 1: GCTGCCACTAGAGTTTTCCCGGGAAAAGATCATCAAGAGCACACGGG DNA 2: CCCGTGTGCTCTTGATGATCTTTTCCCGGGAAAACTCTAGTGGCAGC	–	1.6 kT (ddG vs 2C_GAS)	1.6 kT (ddG vs 2C_GAS)
0T_GAS (dsDNA) DNA 1: GCTGCCACTAGAGTTTTTTTAGGAAAAGATCATCAAGAGCACACGGG DNA 2: CCCGTGTGCTCTTGATGATCTTTTCCTAAAAAAACTCTAGTGGCAGC	–	1.5 kT (ddG vs 2C_GAS)	1.8 kT (ddG vs 2C_GAS)
2T_GAS (dsDNA) DNA 1: GCTGCCACTAGAGTTTTCCTAGGAAAAGATCATCAAGAGCACACGGG DNA 2: CCCGTGTGCTCTTGATGATCTTTTCCTAGGAAAACTCTAGTGGCAGC	–	1.9 kT (ddG vs 2C_GAS)	1.7 kT (ddG vs 2C_GAS)
